Literature values in publication PMC12053642, “Oral PRI-002 treatment in patients with MCI or mild AD: a randomized, double-blind phase 1b trial” (Nature Communications, 2025).

B1: lecanemab: anti-amyloid therapeutic antibody, claimed to preferentially target soluble Aβ protofibrils (antibody, chains of the INN, looked up, V domains shown)
VH: EVQLVESGGGLVQPGGSLRLSCSASGFTFSSFGMHWVRQAPGKGLEWVAYISSGSSTIYYGDTVKGRFTISRDNAKNSLFLQMSSLRAEDTAVYYCAREGGYYYGRSYYTMDYWGQGTTVTVSS
VL: DVVMTQSPLSLPVTPGAPASISCRSSQSIVHSNGNTYLEWYLQKPGQSPKLLIYKVSNRFSGVPDRFSGSGSGTDFTLRISRVEAEDVGIYYCFQGSHVPPTFGPGTKLEIK

System: early AD patients
Design: ADAS-cog: dose or concentration left out as unconfirmed
Conditions: cited from earlier work; for deceleration of progression measured by CDR-SB versus placebo: over 18 months, on average
Description: After two decades of setbacks, the United States Food and Drug Administration (USFDA) full approvals for lecanemab[1] and donanemab[2] presents the beginning of a new decade for AD patients with several more drug candidates holding promise for marketing authorisation in the foreseeable future.

Row | Molecule | ADAS-Cog13 and CDR-SB (700 mg for the first 3 doses and 1400 mg thereafter i.v. every 4 weeks, after 12 weeks of treatment) | deceleration of progression measured by CDR-SB versus placebo | slowed decline on measures of cognition and function than placebo (early AD, at 18 months (CDR-SB, ADAS-cog14, ADCOMS, ADCS-MCI-ADL)) | ADAS-cog (from week 12, most prominent at 6 months)
1 | donanemab: anti-amyloid therapeutic antibody [reference compound] | significant improvement | up to 36% |  | 
2 | B1 |  | up to 36% | 27% | symptomatic improvement
